The numbers were not newly measured in publication PMC13615496, which cites them from elsewhere.

The target of this series is PYL (Arabidopsis thaliana) (UniProt Q8VZS8).
UniProt Q8VZS8, sequence (Q8VZS8 2-221): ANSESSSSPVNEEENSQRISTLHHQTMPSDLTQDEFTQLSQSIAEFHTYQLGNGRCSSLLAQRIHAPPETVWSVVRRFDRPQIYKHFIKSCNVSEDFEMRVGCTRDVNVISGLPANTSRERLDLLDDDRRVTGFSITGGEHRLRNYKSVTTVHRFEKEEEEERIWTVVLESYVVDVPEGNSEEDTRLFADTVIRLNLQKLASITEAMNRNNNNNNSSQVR

Regarding ABI (from UniProt P49597), the Kd was 52 µM.
